From patent US20250304673A1 (CATALYM, published 2025)
Residue numbers refer to the chain shown, from its start. Names and notes keep the numbering of the source.

Columns and labels:
recombinant human GDF-15 [1] = molecular target: T1, recombinant human GDF-15 (human, Disulfide-linked homodimer: two copies of this chain form the 24.6 kDa molecule of Table 1.); assay: cell-based or functional assay
T1 chain: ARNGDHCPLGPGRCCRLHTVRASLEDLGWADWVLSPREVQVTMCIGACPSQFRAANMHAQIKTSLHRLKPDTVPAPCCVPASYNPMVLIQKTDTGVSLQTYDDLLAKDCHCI

[2] = molecular target: cynomolgus GDF-15 (cynomolgus monkey); assay: SPR, Biacore T3000, antibody captured by anti-human IgG Fc, GDF-15 injected
recombinant human GDF-15 [3] = molecular target: T1, recombinant human GDF-15; assay: as above
Experimental: (§1) Affinity of CTL-002 to recombinant human GDF-15 was determined by measuring surface plasmon resonance on a Biacore T3000. In addition, the affinity to cynomolgus rat and mouse GDF-15 was measured (see Table 2).
(§2) All experiments were performed in 10 mM HEPES buffer, pH 7.4, 150 mM NaCl, 3.4 mM EDTA and 0.05% Tween. anti-human IgG Fc specific antibody (Jackson, Order #109-005-008, Lot #111148) was covalently immobilized by EDC/NHS chemistry on Biacore CM5 Chips (GE Healthcare, Order #61144275, Lot #10236645). For kinetic characterization of the antigen-antibody interaction pulses of increasing GDF-15 concentrations (e.g. 156.3 pM, 312 pM, 625 pM, 1,250 pM) were injected at a flow rate of 30 μl/min. After each measurement cycle (8 min of association followed by 30 min of dissociation) the antibody-antigen complex was resolved by regeneration of the surface with 10 mM glycine-HCl at pH 2.0. For calculation of the dissociation constant of CTL-002 the association and dissociation phases were recorded and evaluated by global fitting using the software BIAevaluation 4.1. For global fit analysis only, these antigen concentrations were taken into account, which allowed the analysis following the Langmuir 1:1 binding model or 1:1 binding with drifting baseline.

rat GDF-15 = molecular target: T2, rat GDF-15 (rat, UniProt Q9Z0J6 189-303, limits assumed); assay: as above
T2 construct: the construct used in SPR is not described
T2 sequence (looked up): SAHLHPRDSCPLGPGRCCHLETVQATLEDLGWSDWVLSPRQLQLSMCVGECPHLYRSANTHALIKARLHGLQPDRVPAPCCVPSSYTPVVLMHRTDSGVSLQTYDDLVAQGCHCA
Experimental: as §1, §2

mouse GDF-15 = molecular target: T3, mouse GDF-15 (mouse, UniProt Q9Z0J7 189-303); assay: as above
T3 construct: the construct used in SPR is not described; also called mGDF-15; murine GDF-15
T3 sequence (looked up): T2 sequence (looked up) with L4A, L63Q, R75K, Q110R
Experimental: as §1, §2

EC50 of CTL-002 in the flow-adhesion assay with T cells (recombinant human GDF-15 [1]): 0.707 µg/mL
EC50 of rescue of CD8+ T-cell adhesion, flow-adhesion assay (recombinant human GDF-15 [1]): ~0.7 µg/mL
Kd [2]: 108 pM
Kd (recombinant human GDF-15 [3]): 38.3 pM
Kd (rat GDF-15): 449 pM
Kd (mouse GDF-15): 9760 pM
B1: CTL-002 (antibody, human IgG4 S228P, kappa, V domains shown)
VH: QITLKESGPTLVKPTQTLTLTCTFSGFSLSTSGMGVSWIRQPPGKGLEWLAHIYWDDDKRYNPTLKSRLTITKDPSKNQVVLTMTNMDPVDTATYYCARSSYGAMDYWGQGTLVTVSS
VL: DIVLTQSPSFLSASVGDRVTITCKASQNVGTNVAWFQQKPGKSPKALIYSASYRYSGVPDRFTGSGSGTEFTLTISSLQPEDFAAYFCQQYNNFPYTFGGGTKLEIKR
notes: Humanized, hinge-stabilized IgG4 (IgG4 S228P) derived from mouse antibody B1-23; captured by anti-human IgG Fc on the chip in the SPR assay; also called visugromab; CTL-001 IgG4*
